How the values were obtained:
[1] = target: GST:Weel^152
[2] = target: GST:Weel^70
Sequence of GST:Weel^70 (chain, as listed by the source): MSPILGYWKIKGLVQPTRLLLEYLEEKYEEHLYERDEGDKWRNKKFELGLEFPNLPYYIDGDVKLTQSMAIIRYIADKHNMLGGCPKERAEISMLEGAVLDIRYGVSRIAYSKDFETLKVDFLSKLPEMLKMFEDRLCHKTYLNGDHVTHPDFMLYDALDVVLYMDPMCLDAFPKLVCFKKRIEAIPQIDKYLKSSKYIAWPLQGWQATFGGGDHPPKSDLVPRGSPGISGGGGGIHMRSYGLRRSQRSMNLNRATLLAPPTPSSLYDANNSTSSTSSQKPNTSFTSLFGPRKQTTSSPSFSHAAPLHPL

Sequence of GST:Weel^152 (chain, as listed by the source): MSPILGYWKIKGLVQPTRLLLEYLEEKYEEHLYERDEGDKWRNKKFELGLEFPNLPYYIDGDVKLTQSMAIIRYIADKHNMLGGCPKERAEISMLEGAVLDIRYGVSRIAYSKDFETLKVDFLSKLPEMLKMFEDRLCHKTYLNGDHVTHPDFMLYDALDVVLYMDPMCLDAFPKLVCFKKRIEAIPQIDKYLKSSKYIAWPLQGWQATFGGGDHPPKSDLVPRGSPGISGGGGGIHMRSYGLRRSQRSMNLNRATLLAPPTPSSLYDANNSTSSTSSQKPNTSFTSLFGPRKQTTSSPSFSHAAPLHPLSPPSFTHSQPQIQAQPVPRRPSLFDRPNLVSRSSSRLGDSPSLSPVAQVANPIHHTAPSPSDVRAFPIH

B1: Cds1 (protein)
chain: MEEPEEATQATQEAPLHVSQNIAKQVVNNENVFMKLVMTRMLDGKTEVIPLTTDVHNGFWRFGRHKSCEVVLNGPRVSNFHFEIYQGHRNDSDESENVVFLHDHSSNGTFLNFERLAKNSRTILSNGDEIRIGLGVPKDEISFLCQVPVKHSRDSQKNMIKSENSHYEIIRTLGSGTFAVVKLAVEVNSGKWYAIKIINKRKILLTSSEKRATEMFQREIDILKSLHHPGVVQCHEIFENDDELFIVMEYVEGGDLMDFLIANGSIDEQDCKPLLKQLLETLLHLHKQGVTHRDIKPENILITNDFHLKISDFGLAKVIHGTGTFLETFCGTMGYLAPEVLKSKNVNLDGGYDDKVDIWSLGCVLYVMLTASIPFASSSQAKCIELISKGAYPIEPLLENEISEEGIDLINRMLEINPEKRISESEALQHPWFYTVSTHEHRTPPSSSEHEATEQLNSSS
[1]
  phosphorylation by bead-associated kinase with [gamma-32P]ATP: GST:Weel^152 is phosphorylated by this kinase and another that is active prior to HU treatment
[2]
  in vitro phosphorylation, two-dimensional tryptic phosphopeptide map: Cds1 purified from fission yeast phosphorylated GST:Weel^70 in vitro, producing a two-dimensional tryptic phosphopeptide map that was identical to a map made from GST:Weel^70 phosphorylated by its associated kinase

Source: patent US20030216563
